Holding throughout (type): physicochemical
Series [1] in a line: pH of synthesized peptide in water solution. From the text: Peptides were synthesized on a CEM Liberty microwave peptide synthesizer (CEM Corporation, Matthews, N.C.) based on the automated base-labile 9-fluorenylmethoxycarbonyl (Fmoc) strategy with Fmoc-protected amino acids (EMD Biosciences, San Diego, Calif.). Peptides were cleaved with 95% trifluoroacetic acid (Sigma-Aldrich, Milwaukee, Wis.), 2.5% triisopropylsilane (Sigma), and 2.5% deionized water. The crude peptides were washed three times with anhydrous ether (Fisher Biotech, Fair Lawn, N.J.). After that, peptides were dissolved in acetonitrile and distilled (DI) water (50/50 v/v). The peptide solution was frozen in a −80° C. refrigerator overnight and then was freeze-dried for 48 hours by using the Labconco freeze dry system (Labconco, Kansas City, Mo.). The pH value of the peptide in water solution was 3.6. Molecular weight of the synthesized peptide was confirmed by matrix-assisted laser desorption/ionization time-of-flight mass spectroscopy on an Ultraflex II instrument (Bruker Daltronics, Billerica, Mass.). The peptide purity was confirmed by a Beckman System Gold high performance liquid chromatography (HPLC, Beckman Coulter, Inc., Fullerton, Calif.) on a phenomenex synergi 4μ Hydro-RP column (Phenomenex, Inc., Torance, Calif.) with the following gradient: 10-90% B in 20 min (A: 99.9% H2O, 0.1% TFA; B: 90% acetonitrile, 9.9% H2O, 0.1% TFA).

The nature of series [2]: h9e hydrogel formation in cell culture media, serum/albumin dependence. From the text:
This phenomenon was further exploited in other cell culture medium like Dulbecco's modified Eagle's medium (DMEM), Roswell Park Memorial Institute medium (RPMI), and Leibovitz medium (L-15). […] After screening the abundant serum compounds, we concentrated on one of the most abundant proteins in serum, albumin, which contains charged groups and several surface binding domains.

Series [3] can be described thus: Rheology (storage modulus, hydrogel forming rate) of h9e/BSA mixtures. The conditions noted are these: 3 mM h9e solution without BSA, 30 min test. Here is the method: BSA and HSA were dissolved in water with 5 wt % concentration. The peptide solution and albumin solution were then mixed at different ratios for final mixtures of 1, 2, 3 mM h9e peptide with albumin from 0.1 to 5 wt %.
The storage (G′) and loss (G″) moduli of h9e hydrogels with different peptide/albumin ratios were measured on a rheometer system C-VOR 150 (Malvern instruments, Malvern, Worcestershire WR141XZ, United Kingdom) with a 20 mm diameter parallel plate test system. All rheological tests were carried out at 37° C. […]

Series [4] can be described thus: Comparison of material properties of different 3D cell culture hydrogels. From the text:
In addition, for in vitro 3D cell culture, cell encapsulation and isolation are two critical steps to introduce 3D spatial support for cell growth and to recover embedded cells from the scaffold matrix for downstream studies respectively. For a convenient, effective, and safe encapsulation, cells should be added simultaneously with the initialization of hydrogelation. Therefore, mild and cyto-compatible hydrogel-forming conditions are preferred, to ensure that cells survive comfortably during gel formation. However, the sol-gel transformation of currently used peptide/protein hydrogels (i.e., puramatrix gel, hydromatix peptide hydrogel, and matrigel) is triggered by adjusting pH or temperature (Table 1).

Series [5] in a line: Stability of h9e-2i hydrogel and of h9e peptide solution. The procedure: The stability of h9e-2i medium hydrogel was tested. A plastic tray was placed on the bottom of the well plate. Next, 1 wt % h9e solution was mixed with 2i medium at 1:1 (v:v) ratio in a centrifuge tube and then transferred into the well plate. There was 500 μl peptide hydrogel for each well. The well plate was then placed in an incubator for 1 hour. After hydrogel was stable, another 500 μl of 2i medium was slowly added on the top of hydrogel. The top medium was replaced every other day. For mechanical testing, the top 2i medium was removed and hydrogel was transferred to a dynamic rheometer using the tray. The stability of the peptide solution was also tested using 1 wt % peptide solution stored in 4° C. refrigerator for up to 24 days. Part of the peptide solution was taken out and mixed with 2i medium with 1:1 (v:v) ratio on days 1, 6, 18 and 24.

A value given as a limit tells only on which side of the number the result lay.

For the sequence “FLIVIGSIIGPGGDGPGGD (Derivative of spider flagelliform silk protein and a trans-membrane segment of subunit IV in the dihydropyridine sensitive human muscle L-type calcium channel) [h9e, 19 unit amphiphilic self-assembling peptide]”, in series [1], the “pH value of the peptide in water solution” value was determined as 3.6. Moreover, the “solution to hydrogel transition” value in series [2] (MEM without serum) is on record as “did not stimulate this solution to hydrogel transitions effectively”. For the same sequence, the “time to transform into a self-supporting hydrogel matrix” value in series [2] (h9e peptide solution added into MEM with 10% serum) was no more than 1 min. Also, the hydrogel formation result in series [2] (serum-free N2B27 supplemented 2i medium with 1 wt % albumin) is listed as “hydrogel formation”. Further, the rheological behaviour result in series [3] was “performed as Newtonian liquid”. In series [4], the Porosity is given as 50-200 nm and the “Solution pH” value is “Neutral”. Also, in series [5] (1 wt % h9e solution stored at 4° C. for 24 days), the “hydrogel formation with 2i medium after storage of solution” value was “could still from a hydrogel”. Also, the “stability of h9e solution” value in series [5] (recent study, no details) was “exceed 2 months”.

(Values after patent publication US20160030629A1, “PEPTIDE-ALBUMIN HYDROGEL PROPERTIES AND ITS APPLICATIONS” (KANSAS STATE UNIVERSITY RESEARCH FOUNDATION, priority 2012, published 2016).)
